These results are taken from publication PMC7338394.

First the molecules themselves.
B1: truncated Myc-tagged DIX domain of DVL2 [human] / Dishevelled-2 (DVL2), full-length, Flag-tagged [human] (parent)
chain 1: VGETKVIYHLDEEETPYLVKIPVPAERITLGDFKSVLQRPAGAKYFFKSMDQDFGVVKEEISDDNARLPCFNGRVVSWLVSSD
chain 2: MAGSSTGGGGVGETKVIYHLDEEETPYLVKIPVPAERITLGDFKSVLQRPAGAKYFFKSMDQDFGVVKEEISDDNARLPCFNGRVVSWLVSSDNPQPEMAPPVHEPRAELAPPAPPLPPLPPERTSGIGDSRPPSFHPNVSSSHENLEPETETESVVSLRRERPRRRDSSEHGAGGHRTGGPSRLERHLAGYESSSTLMTSELESTSLGDSDEEDTMSRFSSSTEQSSASRLLKRHRRRRKQRPPRLERTSSFSSVTDSTMSLNIITVTLNMEKYNFLGISIVGQSNERGDGGIYIGSIMKGGAVAADGRIEPGDMLLQVNDMNFENMSNDDAVRVLRDIVHKPGPIVLTVAKCWDPSPQAYFTLPRNEPIQPIDPAAWVSHSAALTGTFPAYPGSSSMSTITSGSSLPDGCEGRGLSVHTDMASVTKAMAAPESGLEVRDRMWLKITIPNAFLGSDVVDWLYHHVEGFPERREARKYASGLLKAGLIRHTVNKITFSEQCYYVFGDLSGGCESYLVNLSLNDNDGSSGASDQDTLAPLPGATPWPLLPTFSYQYPAPHPYSPQPPPYHELSSYTYGGGSASSQHSEGSRSSGSTRSDGGAGRTGRPEERAPESKSGSGSESEPSSRGGSLRRGGEASGTSDGGPPPSRGSTGGAPNLRAHPGLHPYGPPPGMALPYNPMMVVMMPPPPPPVPPAVQPPGAPPVRDLGSVPPELTASRQSFHMAMGNPSEFFVDVM

The variants in this experiment derive from B1. Kind of experiment: Co-IP (IP: Flag, immunoblot for Myc-DIX) with densitometry. To be noted: with Dishevelled-2 (DVL2), HEK293T cells, co-immunoprecipitated DIX levels normalized to immunoprecipitated DVL2 levels, three independent experiments, parent: 4.7, read off a plot.
In the case of chain 1 K58R, the response was found to be 1.1.
